According to patent US20250034261A1 (TAIZHOU ENZE MEDICAL CENTER GROUP, published 2025):

Experiments:
[1] = biological target: T1, antigenic peptide located at positions 209-226 in the heavy chain α3 domain of the HLA-G molecules … (human); test: indirect ELISA, peptide coated at 2 ug/ml, antibody in 2-fold dilutions from 200-fold; logistic fit, 150000×A/antibody concentration
T1 construct: Synthetic peptide, coated on the ELISA plate at 2 ug/ml; also called immunogen
T1 peptide: KTHVTHHPVFDYEATLRC
Experimental: (§1) The antigen (SEQ No. 19 [sequence]) was diluted with the coating buffer, with the final concentration of 2 ug/ml, 100 ul/well, and placed at 4° C. overnight; washed with the wash buffer twice, blocked with the blocking buffer at 200 ul/well, incubated at 37° C. for 2 hours; then washed once with the wash buffer. The purified antibody was diluted by 2-fold starting from 200-fold (PBS), and the blank control (blank) was PBS, 100 ul/well, and incubated at 37° C. for 1 hour; and then washed 3 times with the wash buffer. The secondary antibody diluted with PBS by 20,000-fold was added, 100 ul/well, and incubated in a 37° C. incubator for 1 hour; taken out and washed 3 times with a wash buffer. Then the color development was performed with a developing solution of 100 ul/well for 5-15 minutes. Then 50 ul of stop solution was added to each well to stop. The absorbance value was measured at dual wavelengths (450, 630), and a chart was drawn for analysis.

[2] = biological target: T1, antigenic peptide located at positions …; test: indirect ELISA, peptide coated at 2 ug/ml; antibody stock 2.8 mg/mL
Experimental: as §1

[3] = biological target: T2, HLA-G3 standard protein (human, UniProt P17693-3 25-154); test: immunoblot of HLA-G isoform standard proteins
T2 construct: Standard protein used in immunoblotting
Experimental: (§2) After electroporating the standard proteins of HLA-G isoforms (HLA-G1, HLA-G2, HLA-G3, HLA-G4, HLA-G5, HLA-G6 and HLA-G7), 5% skimmed milk powder was used to block at room temperature for 4 hours, and washed with 0.2% TBS (Tewen-20 PBS).

[4] = biological target: T3, HLA-G7 standard protein (human, UniProt P17693-7 25-116); test: immunoblot of HLA-G isoform standard proteins
T3 construct: Standard protein used in immunoblotting
Experimental: as §2

[5] = biological target: T4, HLA-G4 standard protein (human, UniProt P17693-4 25-246); test: immunoblot of HLA-G isoform standard proteins
T4 construct: Standard protein used in immunoblotting
Experimental: as §2

Ka [1]: 1.1e+10 M⁻¹
antibody dilution factor corresponding to 1/2 OD value [2]: 205000 fold dilution
binding result [3]: no binding (tested: 1.0 ug/ml)
binding result [4]: no binding (tested: 1.0 ug/ml)
binding result [5]: no binding (tested: 1.0 ug/ml)
B1: monoclonal antibody (YWHG-3) against HLA-G1, -G2, -G5 and HLA-G6 isoforms (antibody, IgG1, V domains shown)
VH: LVQLQQSGGGLVKPGGSLKLSCAASGFTFSDYNMYWVRQTPEKRLEWVATISDGGRSTFYLDSVKGRFTISRDNAKNNLYLQINNLKSEDTAIYYCVRDDYWGQGTTLTVSS
VL: DIMMTQTPLSLPVSLGDQASISCRSSQSLVHSTGNTFLNWYLQKPGQSPKLLIYKVSNRFSGVSDRFSGSGSGTDFTLKIRRVEAEDLGVYFCSQSTHVPWTFGGGTKLEIK
notes: Used biotin-labelled in the HLA-G5 ELISA and FITC-labelled in flow cytometry; also called hybridoma CCTCC NO: 202121
